B1: GIGYF2 (protein, UniProt Q6Y7W6 2-1299, looked up)
GRB10-interacting GYF protein …: AAETQTLNFGPEWLRALSSGGSITSPPLSPALPKYKLADYRYGREEMLALFLKDNKIPSDLLDKEFLPILQEEPLPPLALVPFTEEEQRNFSMSVNSAAVLRLTGRGGGGTVVGAPRGRSSSRGRGRGRGECGFYQRSFDEVEGVFGRGGGREMHRSQSWEERGDRRFEKPGRKDVGRPNFEEGGPTSVGRKHEFIRSESENWRIFREEQNGEDEDGGWRLAGSRRDGERWRPHSPDGPRSAGWREHMERRRRFEFDFRDRDDERGYRRVRSGSGSIDDDRDSLPEWCLEDAEEEMGTFDSSGAFLSLKKVQKEPIPEEQEMDFRPVDEGEECSDSEGSHNEEAKEPDKTNKKEGEKTDRVGVEASEETPQTSSSSARPGTPSDHQSQEASQFERKDEPKTEQTEKAEEETRMENSLPAKVPSRGDEMVADVQQPLSQIPSDTASPLLILPPPVPNPSPTLRPVETPVVGAPGMGSVSTEPDDEEGLKHLEQQAEKMVAYLQDSALDDERLASKLQEHRAKGVSIPLMHEAMQKWYYKDPQGEIQGPFNNQEMAEWFQAGYFTMSLLVKRACDESFQPLGDIMKMWGRVPFSPGPAPPPHMGELDQERLTRQQELTALYQMQHLQYQQFLIQQQYAQVLAQQQKAALSSQQQQQLALLLQQFQTLKMRISDQNIIPSVTRSVSVPDTGSIWELQPTASQPTVWEGGSVWDLPLDTTTPGPALEQLQQLEKAKAAKLEQERREAEMRAKREEEERKRQEELRRQQEEILRRQQEEERKRREEEELARRKQEEALRRQREQEIALRRQREEEERQQQEEALRRLEERRREEEERRKQEELLRKQEEEAAKWAREEEEAQRRLEENRLRMEEEAARLRHEEEERKRKELEVQRQKELMRQRQQQQEALRRLQQQQQQQQLAQMKLPSSSTWGQQSNTTACQSQATLSLAEIQKLEEERERQLREEQRRQQRELMKALQQQQQQQQQKLSGWGNVSKPSGTTKSLLEIQQEEARQMQKQQQQQQQHQQPNRARNNTHSNLHTSIGNSVWGSINTGPPNQWASDLVSSIWSNADTKNSNMGFWDDAVKEVGPRNSTNKNKNNASLSKSVGVSNRQNKKVEEEEKLLKLFQGVNKAQDGFTQWCEQMLHALNTANNLDVPTFVSFLKEVESPYEVHDYIRAYLGDTSEAKEFAKQFLERRAKQKANQQRQQQQLPQQQQQQPPQQPPQQPQQQDSVWGMNHSTLHSVFQTNQSNNQQSNFEAVQSGKKKKKQKMVRADPSLLGFSVNASSERLNMGEIETLDDY
B2: TJP2 (protein, UniProt Q9UDY2 1-1190, looked up)
Tight junction protein 2: MPVRGDRGFPPRRELSGWLRAPGMEELIWEQYTVTLQKDSKRGFGIAVSGGRDNPHFENGETSIVISDVLPGGPADGLLQENDRVVMVNGTPMEDVLHSFAVQQLRKSGKVAAIVVKRPRKVQVAALQASPPLDQDDRAFEVMDEFDGRSFRSGYSERSRLNSHGGRSRSWEDSPERGRPHERARSRERDLSRDRSRGRSLERGLDQDHARTRDRSRGRSLERGLDHDFGPSRDRDRDRSRGRSIDQDYERAYHRAYDPDYERAYSPEYRRGARHDARSRGPRSRSREHPHSRSPSPEPRGRPGPIGVLLMKSRANEEYGLRLGSQIFVKEMTRTGLATKDGNLHEGDIILKINGTVTENMSLTDARKLIEKSRGKLQLVVLRDSQQTLINIPSLNDSDSEIEDISEIESNRSFSPEERRHQYSDYDYHSSSEKLKERPSSREDTPSRLSRMGATPTPFKSTGDIAGTVVPETNKEPRYQEDPPAPQPKAAPRTFLRPSPEDEAIYGPNTKMVRFKKGDSVGLRLAGGNDVGIFVAGIQEGTSAEQEGLQEGDQILKVNTQDFRGLVREDAVLYLLEIPKGEMVTILAQSRADVYRDILACGRGDSFFIRSHFECEKETPQSLAFTRGEVFRVVDTLYDGKLGNWLAVRIGNELEKGLIPNKSRAEQMASVQNAQRDNAGDRADFWRMRGQRSGVKKNLRKSREDLTAVVSVSTKFPAYERVLLREAGFKRPVVLFGPIADIAMEKLANELPDWFQTAKTEPKDAGSEKSTGVVRLNTVRQIIEQDKHALLDVTPKAVDLLNYTQWFPIVIFFNPDSRQGVKTMRQRLNPTSNKSSRKLFDQANKLKKTCAHLFTATINLNSANDSWFGSLKDTIQHQQGEAVWVSEGKMEGMDDDPEDRMSYLTAMGADYLSCDSRLISDFEDTDGEGGAYTDNELDEPAEEPLVSSITRSSEPVQHEESIRKPSPEPRAQMRRAASSDQLRDNSPPPAFKPEPPKAKTQNKEESYDFSKSYEYKSNPSAVAGNETPGASTKGYPPPVAAKPTFGRSILKPSTPIPPQEGEEVGESSEEQDNAPKSVLGKVKIFEKMDHKARLQRMQELQEAQNARIEIAQKHPDIYAVPIKTHKPDPGTPQHTSSRPPEPQKAPSRPYQDTRGSYGSDAEEEEYRQQLSEHSKRGYYGQSARYRDTEL
B3: CENPV (protein, UniProt Q7Z7K6 1-275, looked up)
Centromere protein V: MRRSRSSAAAKLRGQKRSGASGASAAPAASAAAALAPSATRTRRSASQAGSKSQAVEKPPSEKPRLRRSSPRAQEEGPGEPPPPELALLPPPPPPPPTPATPTSSASNLDLGEQRERWETFQKRQKLTSEGAAKLLLDTFEYQGLVKHTGGCHCGAVRFEVWASADLHIFDCNCSICKKKQNRHFIVPASRFKLLKGAEHITTYTFNTHKAQHTFCKRCGVQSFYTPRSNPGGFGIAPHCLDEGTVRSMVTEEFNGSDWEKAMKEHKTIKNMSKE
B4: ACIN1 (protein, UniProt Q9UKV3 1-1341, looked up)
Apoptotic chromatin …: MWRRKHPRTSGGTRGVLSGNRGVEYGSGRGHLGTFEGRWRKLPKMPEAVGTDPSTSRKMAELEEVTLDGKPLQALRVTDLKAALEQRGLAKSGQKSALVKRLKGALMLENLQKHSTPHAAFQPNSQIGEEMSQNSFIKQYLEKQQELLRQRLEREAREAAELEEASAESEDEMIHPEGVASLLPPDFQSSLERPELELSRHSPRKSSSISEEKGDSDDEKPRKGERRSSRVRQARAAKLSEGSQPAEEEEDQETPSRNLRVRADRNLKTEEEEEEEEEEEEDDEEEEGDDEGQKSREAPILKEFKEEGEEIPRVKPEEMMDERPKTRSQEQEVLERGGRFTRSQEEARKSHLARQQQEKEMKTTSPLEEEEREIKSSQGLKEKSKSPSPPRLTEDRKKASLVALPEQTASEEETPPPLLTKEASSPPPHPQLHSEEEIEPMEGPAPAVLIQLSPPNTDADTRELLVSQHTVQLVGGLSPLSSPSDTKAESPAEKVPEESVLPLVQKSTLADYSAQKDLEPESDRSAQPLPLKIEELALAKGITEECLKQPSLEQKEGRRASHTLLPSHRLKQSADSSSSRSSSSSSSSSRSRSRSPDSSGSRSHSPLRSKQRDVAQARTHANPRGRPKMGSRSTSESRSRSRSRSRSASSNSRKSLSPGVSRDSSTSYTETKDPSSGQEVATPPVPQLQVCEPKERTSTSSSSVQARRLSQPESAEKHVTQRLQPERGSPKKCEAEEAEPPAATQPQTSETQTSHLPESERIHHTVEEKEEVTMDTSENRPENDVPEPPMPIADQVSNDDRPEGSVEDEEKKESSLPKSFKRKISVVSATKGVPAGNSDTEGGQPGRKRRWGASTATTQKKPSISITTESLKSLIPDIKPLAGQEAVVDLHADDSRISEDETERNGDDGTHDKGLKICRTVTQVVPAEGQENGQREEEEEEKEPEAEPPVPPQVSVEVALPPPAEHEVKKVTLGDTLTRRSISQQKSGVSITIDDPVRTAQVPSPPRGKISNIVHISNLVRPFTLGQLKELLGRTGTLVEEAFWIDKIKSHCFVTYSTVEEAVATRTALHGVKWPQSNPKFLCADYAEQDELDYHRGLLVDRPSETKTEEQGIPRPLHPPPPPPVQPPQHPRAEQREQERAVREQWAEREREMERRERTRSEREWDRDKVREGPRSRSRSRDRRRKERAKSKEKKSEKKEKAQEEPPAKLLDDLFRKTKAAPCIYWLPLTDSQIVQKEAERAERAKEREKRRKEQEEEEQKEREKEAERERNRQLEREKRREHSRERDRERERERERDRGDRDRDRERDRERGRERDRRDTKRHSRSRSRSTPVRDRGGRR

Assays:
GFP-14-3-3β = GFP-14-3-3β co-IP with LC-MS/MS, untreated GFP-14-3-3β versus GFP control (14-3-3 interactome); assay type: binding, human; conditions: untreated vs GFP; LFQ intensities, replicates 1-3
[1] = system: GFP-14-3-3β and its binding proteins; experiment: GFP-14-3-3β co-IP with LC-MS/MS label-free quantification, untreated versus PP1c-treated; design: species or system human; conditions: PP1 vs untreated; LFQ intensities, replicates 1-3

| Molecule | Difference (log2), untreated vs GFP (GFP-14-3-3β) | Difference (log2), PP1 vs untreated [1] |
| --- | --- | --- |
| B1 | 2.445 log2 | -0.9344 log2 |
| B2 | 5.699 log2 | -0.9629 log2 |
| B3 | 2.895 log2 | -0.9888 log2 |
| B4 | 1.747 log2 | -1.001 log2 |

Reference: paper PMC7367873, “Dissecting the sequence determinants for dephosphorylation by the catalytic subunits of phosphatases PP1 and PP2A” (Nature Communications, 2020)
